The chains are these.
T1: B7H3 on the recombinant cell line CT26-B7H3 (UniProt Q5ZPR3 29-534, limits assumed)
T1 construct: whole, on cells
T1 sequence (looked up): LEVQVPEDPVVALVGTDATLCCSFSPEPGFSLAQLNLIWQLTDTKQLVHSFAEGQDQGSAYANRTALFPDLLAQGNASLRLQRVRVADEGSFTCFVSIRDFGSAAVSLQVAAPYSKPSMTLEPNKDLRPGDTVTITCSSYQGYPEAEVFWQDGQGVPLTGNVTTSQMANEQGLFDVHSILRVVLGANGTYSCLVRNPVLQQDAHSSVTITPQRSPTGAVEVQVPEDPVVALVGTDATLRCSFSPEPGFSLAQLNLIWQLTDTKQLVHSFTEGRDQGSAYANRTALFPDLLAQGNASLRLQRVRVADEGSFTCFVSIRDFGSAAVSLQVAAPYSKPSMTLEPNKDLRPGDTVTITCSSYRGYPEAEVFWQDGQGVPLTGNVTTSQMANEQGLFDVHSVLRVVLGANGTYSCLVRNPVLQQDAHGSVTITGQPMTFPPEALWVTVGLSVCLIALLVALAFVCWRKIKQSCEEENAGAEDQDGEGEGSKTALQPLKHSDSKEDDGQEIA

B1: F32 (antibody)
heavy: not shown
light: DTVVTQEPSFSVSPGGTVTLTCGLSSGSVSTSHYPSWYQQTPGQAPRMLIYNTNTRSSGVPDRFSGSILGNKAALTITGAQADDESDYYCAIHVDRDIWVFGGGTKLTVLGGGGSGGGGSSGAPRFLTRPKAFVVSVGKDATLSSQIVGNPTPQVSWEKDQQPVAAGARFRLAQDGDLYRLTILDLALGDSGQYVSRARNAIGEAFACVGLQVDAEA
B2: F34 (antibody)
heavy: not shown
light: DTVVTQEPSFSVSPGGTVTLTCGLSSGSVSTSHYPSWYQQTPGQAPRMLIYNTNTRSSGVPDRFSGSILGNKAALTITGAQADDESDYYCAIHVDRDIWVFGGGTKLTVLGGGGSGGGGSSGAPRFLTRPKAFVVSVGKDATLSSQIVGNPTPQVSWEKDQQPVAAGARFRLAQDGDLYRLTILDLALGDSGQYVSRARNAIGEAFACVGLQVDAEA
B3: F18 (antibody)
heavy: not shown
light: DTVVTQEPSFSVSPGGTVTLTCGLSSGSVSTSHYPSWYQQTPGQAPRMLIYNTNTRSSGVPDRFSGSILGNKAALTITGAQADDESDYYCAIHVDRDIWVFGGGTKLTVLSGAPRFKTRPKAFVVSVGKDATLSSQIVGNPTPQVSWEKDQQPVAAGARFRLAQDGDLYRLHILDLALGDSGQYVSRARNAIGEAFACVGLQVDAEA
B4: F16 (antibody)
heavy: not shown
light: DTVVTQEPSFSVSPGGTVTLTCGLSSGSVSTSHYPSWYQQTPGQAPRMLIYNTNTRSSGVPDRFSGSILGNKAALTITGAQADDESDYYCAIHVDRDIWVFGGGTKLTVLSGAPRFLTRPKAFVVSVGKDATLSSQIVGNPTPQVSWEKDQQPVAAGARFRLAQDGDLYRLTILDLALGDSGQYVSRARNAIGEAFACVGLQVDAEA
B5: F17 (antibody)
heavy: not shown
light: DTVVTQEPSFSVSPGGTVTLTCGLSSGSVSTSHYPSWYQQTPGQAPRMLIYNTNTRSSGVPDRFSGSILGNKAALTITGAQADDESDYYCAIHVDRDIWVFGGGTKLTVLSGAPRFKTRPKAFVVSVGKDATLSSQIVGNPTPQVSWEKDQQPVAAGARFRLAQDGDLYRLKILDLALGDSGQYVSRARNAIGEAFACVGLQVDAEA
B6: F21 (antibody)
heavy: not shown
light: DTVVTQEPSFSVSPGGTVTLTCGLSSGSVSTSHYPSWYQQTPGQAPRMLIYNTNTRSSGVPDRFSGSILGNKAALTITGAQADDESDYYCAIHVDRDIWVFGGGTKLTVLSGAPRFLTRPLAFVVSVGKDATLSSQIVGNPTPQVSWEKDQQPVAAGARFRLAQDGDLYRLKILDLALGDSGQYVSRARNAIGEAFACVGLQVDAEA
B7: F19 (antibody)
heavy: not shown
light: DTVVTQEPSFSVSPGGTVTLTCGLSSGSVSTSHYPSWYQQTPGQAPRMLIYNTNTRSSGVPDRFSGSILGNKAALTITGAQADDESDYYCAIHVDRDIWVFGGGTKLTVLSGAPRFKTRPKAFVVSVGKDATLSSQIVGNPTPQVSWEKDQQPVAAGARFRLAQDGDLYRLHILDLALGDSGQYVSRARNAIGEAFACVGLQVDAEA
B8: F23 (antibody)
heavy: not shown
light: DTVVTQEPSFSVSPGGTVTLTCGLSSGSVSTSHYPSWYQQTPGQAPRMLIYNTNTRSSGVPDRFSGSILGNKAALTITGAQADDESDYYCAIHVDRDIWVFGGGTKLTVLSGAPRFLTRPLAFVVSVGKDATLSSQIVGNPTPQVSWEKDQQPVAAGARFRLAQDGDLYRLHILDLALGDSGQYVSRARNAIGEAFACVGLQVDAEA
B9: F22 (antibody)
heavy: not shown
light: DTVVTQEPSFSVSPGGTVTLTCGLSSGSVSTSHYPSWYQQTPGQAPRMLIYNTNTRSSGVPDRFSGSILGNKAALTITGAQADDESDYYCAIHVDRDIWVFGGGTKLTVLSGAPRFLTRPLAFVVSVGKDATLSSQIVGNPTPQVSWEKDQQPVAAGARFRLAQDGDLYRLHILDLALGDSGQYVSRARNAIGEAFACVGLQVDAEA
B10: F20 (antibody)
heavy: not shown
light: DTVVTQEPSFSVSPGGTVTLTCGLSSGSVSTSHYPSWYQQTPGQAPRMLIYNTNTRSSGVPDRFSGSILGNKAALTITGAQADDESDYYCAIHVDRDIWVFGGGTKLTVLSGAPRFLTRPLAFVVSVGKDATLSSQIVGNPTPQVSWEKDQQPVAAGARFRLAQDGDLYRLKILDLALGDSGQYVSRARNAIGEAFACVGLQVDAEA
B11: F24 (antibody)
heavy: not shown
light: DTVVTQEPSFSVSPGGTVTLTCGLSSGSVSTSHYPSWYQQTPGQAPRMLIYNTNTRSSGVPDRFSGSILGNKAALTITGAQADDESDYYCAIHVDRDIWVFGGGTKLTVLDQPQFSGAPRFKTRPKAFVVSVGKDATLSSQIVGNPTPQVSWEKDQQPVAAGARFRLAQDGDLYRLKILDLALGDSGQYVSRARNAIGEAFACVGLQVDAEA
B12: F25 (antibody)
heavy: not shown
light: DTVVTQEPSFSVSPGGTVTLTCGLSSGSVSTSHYPSWYQQTPGQAPRMLIYNTNTRSSGVPDRFSGSILGNKAALTITGAQADDESDYYCAIHVDRDIWVFGGGTKLTVLDQPQFSGAPRFKTRPKAFVVSVGKDATLSSQIVGNPTPQVSWEKDQQPVAAGARFRLAQDGDLYRLKILDLALGDSGQYVSRARNAIGEAFACVGLQVDAEA
B13: F33 (antibody)
heavy: not shown
light: DTVVTQEPSFSVSPGGTVTLTCGLSSGSVSTSHYPSWYQQTPGQAPRMLIYNTNTRSSGVPDRFSGSILGNKAALTITGAQADDESDYYCAIHVDRDIWVFGGGTKLTVLGGGGSSGAPRFLTRPKAFVVSVGKDATLSSQIVGNPTPQVSWEKDQQPVAAGARFRLAQDGDLYRLTILDLALGDSGQYVSRARNAIGEAFACVGLQVDAEA
B14: F28 (antibody)
heavy: not shown
light: DTVVTQEPSFSVSPGGTVTLTCGLSSGSVSTSHYPSWYQQTPGQAPRMLIYNTNTRSSGVPDRFSGSILGNKAALTITGAQADDESDYYCAIHVDRDIWVFGGGTKLTVLDQPQFSGAPRFRTRPKAFVVSVGKDATLSSQIVGNPTPQVSWEKDQQPVAAGARFRLAQDGDLYRLKILDLALGDSGQYVSRARNAIGEAFACVGLQVDAEA
B15: F31 (antibody)
heavy: not shown
light: DTVVTQEPSFSVSPGGTVTLTCGLSSGSVSTSHYPSWYQQTPGQAPRMLIYNTNTRSSGVPDRFSGSILGNKAALTITGAQADDESDYYCAIHVDRDIWVFGGGTKLTVLDQPQFSGAPRFRTRPKAFVVSVGKDATLSSQIVGNPTPQVSWEKDQQPVAAGARFRLAQDGDLYRLHILDLALGDSGQYVSRARNAIGEAFACVGLQVDAEA
B16: F27 (antibody)
heavy: not shown
light: DTVVTQEPSFSVSPGGTVTLTCGLSSGSVSTSHYPSWYQQTPGQAPRMLIYNTNTRSSGVPDRFSGSILGNKAALTITGAQADDESDYYCAIHVDRDIWVFGGGTKLTVLDQPQFSGAPRFKTRPKAFVVSVGKDATLSSQIVGNPTPQVSWEKDQQPVAAGARFRLAQDGDLYRLHILDLALGDSGQYVSRARNAIGEAFACVGLQVDAEA
B17: F30 (antibody)
heavy: not shown
light: DTVVTQEPSFSVSPGGTVTLTCGLSSGSVSTSHYPSWYQQTPGQAPRMLIYNTNTRSSGVPDRFSGSILGNKAALTITGAQADDESDYYCAIHVDRDIWVFGGGTKLTVLDQPQFSGAPRFRTRPKAFVVSVGKDATLSSQIVGNPTPQVSWEKDQQPVAAGARFRLAQDGDLYRLHILDLALGDSGQYVSRARNAIGEAFACVGLQVDAEA
B18: F26 (antibody)
heavy: not shown
light: DTVVTQEPSFSVSPGGTVTLTCGLSSGSVSTSHYPSWYQQTPGQAPRMLIYNTNTRSSGVPDRFSGSILGNKAALTITGAQADDESDYYCAIHVDRDIWVFGGGTKLTVLDQPQFSGAPRFKTRPKAFVVSVGKDATLSSQIVGNPTPQVSWEKDQQPVAAGARFRLAQDGDLYRLHILDLALGDSGQYVSRARNAIGEAFACVGLQVDAEA
B19: F29 (antibody)
heavy: not shown
light: DTVVTQEPSFSVSPGGTVTLTCGLSSGSVSTSHYPSWYQQTPGQAPRMLIYNTNTRSSGVPDRFSGSILGNKAALTITGAQADDESDYYCAIHVDRDIWVFGGGTKLTVLDQPQFSGAPRFRTRPKAFVVSVGKDATLSSQIVGNPTPQVSWEKDQQPVAAGARFRLAQDGDLYRLKILDLALGDSGQYVSRARNAIGEAFACVGLQVDAEA

The assay addresses T1, B7H3 on the recombinant cell line …. Kind of assay: FACS, CT26-B7H3 cells. A general note: In flow cytometry, cells or beads pass a laser one at a time.
As for B1, the 50% effective concentration (EC50) (as a rule, the midpoint of the concentration-response curve) is 3.69 nM.
Next, B2: 2.38 nM; B3: 3.9 nM.
B4: the EC50 is 2 nM.
As for B5, the figure is 4.8 nM; as for B6, 3.4 nM; as for B7, 2.2 nM.
As for B8, the figure is 4.1 nM; as for B9, 2.4 nM; as for B10, 1.9 nM.
As for B11, the figure is 2.4 nM; as for B12, 2.6 nM.
As to B13, the EC50 came to 1.92 nM.
Next, B14: 2.4 nM.
Next, B15: 2.4 nM.
As for B16, the figure is 1.2 nM; as for B17, 3.4 nM; as for B18, 2.6 nM.
B19: the EC50 was 3.6 nM.

Source of the values: patent US20240392020A1 (JIANGSU HENGRUI PHARMACEUTICALS, published 2024).
